This is an account of results in publication PMC12900691 (2025).

Assay [1] concerns the target T1, histone H3K9me3 peptide H3K9me3 peptide (Homo sapiens, UniProt P68431, K9me3).
T1 chain: ARTKQTARKSTGGKA
Briefly: ITC.

The target in the next assay is CHD4 ABM (Homo sapiens, UniProt Q14839). Briefly: ITC.
CHD4 ABM, sequence (Q14839 100-140): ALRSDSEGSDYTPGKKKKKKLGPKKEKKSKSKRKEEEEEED

B1: ATRX ADD (protein)
chain: NLKKRGEDGLHGIVSCTACGQQVNHFQKDSIYRHPSLQVLICKNCFKYYMSDDISRDSDGMDEQCRWCAEGGNLICCDFCHNAFCKKCILRNLGRKELSTIMDENNQWYCYICHPEPLLDLVTACNSVFENLEQLLQQNKKKIK
As usually defined, the Kd is the free concentration of one partner at which half of the binding sites on the other are occupied at equilibrium, for simple one-to-one binding. Read a low Kd as tighter binding. Consider B1, for which the results for the Kd (in assay [1]; in the assay with CHD4 ABM) were approximately 4 µM and approximately 46 µM, respectively.
